The experiment addresses human TNFR1 on the cellular surface of HeLa, HT1080 and Kym-1 cells (human) (UniProt P19438). In words: cell-based or functional assay.

The text below walks through data of patent publication US20200299396A1.

Chain of human TNFR1 on the cellular surface of HeLa, HT1080 and Kym-1 cells (human) (P19438 30-455 limits assumed): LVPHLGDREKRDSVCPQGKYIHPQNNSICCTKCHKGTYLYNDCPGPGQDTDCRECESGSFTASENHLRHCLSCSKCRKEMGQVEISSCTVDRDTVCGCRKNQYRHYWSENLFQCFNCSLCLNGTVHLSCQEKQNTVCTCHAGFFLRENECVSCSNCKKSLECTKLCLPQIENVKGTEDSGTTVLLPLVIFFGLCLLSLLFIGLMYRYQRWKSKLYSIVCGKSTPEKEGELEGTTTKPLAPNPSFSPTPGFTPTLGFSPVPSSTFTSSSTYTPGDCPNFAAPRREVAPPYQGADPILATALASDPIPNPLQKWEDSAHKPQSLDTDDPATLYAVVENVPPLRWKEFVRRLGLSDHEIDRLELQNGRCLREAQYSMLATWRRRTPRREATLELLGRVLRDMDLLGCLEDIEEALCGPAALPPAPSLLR

In the case of ATROSAB (antibody), the IC50, Cell death induction [nM] (Kym-1 cells, TNF-induced) was found to be 64.4 nM; the IC50, IL-6 [nM] (IL-6 release from HeLa cells, 0.1 nM TNF) turned out to be 165 nM; the IC50, IL-8 [nM] (IL-8 release from HT1080 cells, 0.1 nM TNF) came to 84.1 nM.
